Laboratory results as given in patent publication US20250138018A1 (NEXTPOINT THERAPEUTICS, published 2025).

T1: CD20 on CD20+ Raji cells (UniProt P11836 1-297, limits assumed)
T1 construct: whole, on cells; Endogenous CD20 of the Raji cell line; also called TAA (CD20)
T1 sequence (looked up): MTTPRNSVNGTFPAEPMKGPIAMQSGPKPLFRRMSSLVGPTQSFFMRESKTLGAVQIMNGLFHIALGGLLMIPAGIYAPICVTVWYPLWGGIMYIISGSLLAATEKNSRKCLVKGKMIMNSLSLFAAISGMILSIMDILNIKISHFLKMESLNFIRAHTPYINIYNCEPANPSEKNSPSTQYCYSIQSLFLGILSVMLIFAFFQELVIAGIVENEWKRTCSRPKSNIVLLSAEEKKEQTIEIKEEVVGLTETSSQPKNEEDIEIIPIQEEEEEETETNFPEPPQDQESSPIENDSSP

B1: TK20-17C7-01 anti-TMIGD2/anti-CD20 bispecific antibody (bispecific antibody, human IgG1, kappa, L234A L235A)
heavy: not shown
light: QIVLSQSPAILSASPGEKVTMTCRASSSVSYIHWFQQKPGSSPKPWIYATSNLASGVPVRFSGSGSGTSYSLTISRVEAEDAATYYCQQWTSNPPTFGGGTKLEIKRTVAAPSVFIFPPSDEQLKSGTASVVCLLNNFYPREAKVQWKVDNALQSGNSQESVTEQDSKDSTYSLSSTLTLSKADYEKHKVYACEVTHQGLSSPVTKSFNRGEC
notes: Tetravalent Morrison format; copies: 2 + 2
B2: TK20-39C9-2134 anti-TMIGD2/anti-CD20 bispecific antibody (bispecific antibody, human IgG1, kappa, L234A L235A)
heavy: not shown
light: B1 light
notes: as for B1
B3: TK20-29F8-16 anti-TMIGD2/anti-CD20 bispecific antibody (bispecific antibody, human IgG1, kappa, L234A L235A)
heavy: not shown
light: B1 light
notes: as for B1

Molecular target: T1, CD20 on CD20+ Raji cells
Assay: Raji co-culture with TMIGD2-Jurkat NFAT reporter cells; binding told in words, not measured directly
Description: Raji cells (2×10⁴) were plated in a 96-well white flat bottom tissue culture plate with anti-TMIGD2/anti-CD20 bispecific antibodies (TK20-17C7-01, TK20-29F8-16, and TK20-39C9-2134) in 50 μl R10 medium (RPMI 1640+10% Fetal bovine serum) at 3-fold serial dilutions ranging from 10-0.5 μg/mL. An anti-CD20 (IgG1 LALA) was included as a negative control. The cells were incubated at 37° C. for 30 minutes. TMIGD2-Jurkat NFAT reporter cells (4×10⁴) were added to each well with 1 μg/mL anti-CD3 antibody (OKT3) in 50 μl R10 medium. Cells were incubated at 37° C. for 6 hours and 100 ul of Bio-Glo™ luciferase assay reagent (Promega®, G7940) was added to each well. Luciferase activity was measured on a plate reader.

Binding result, binds:
B1, B2, B3
